Experiments:
[1] = molecular target: monoclonal IgG antibody in clarified CHO cell supernatant; assay: affinity chromatography, 3-column PCC, 1.5 g/L mAb feed, 45% breakthrough, 0.5 min residence time
[2] = molecular target: monoclonal IgG antibody in clarified CHO cell supernatant; assay: affinity chromatography, 3-column PCC, undiluted supernatant feed, 2.5 min residence time, column switch at 5% breakthrough

What does the source list for “SpA variant ligands (tetramers of Zvar), covalently coupled via a C-terminal cysteine to crosslinked agarose beads (designed binder)”?
dynamic capacity [1]: 43 g/L; dynamic binding capacity [2]: 54 g/L

Source: US20180243665A1
